Molecular target: HBV表面抗原蛋白 (HBsAg) (Hepatitis B virus)
Experiment: SPR, Biacore 3000; 7E5 captured by AHC on a CM5 chip, HBsAg as analyte in 2-fold dilutions from 40 nM to 0 nM

B1: 抗HBsAg单克隆抗体7E5 (antibody, V domains shown)
VH: EVQLQQSGPELVKPGASVKMSCKASGYTFTARGYNWVRQSHGKSLEWIGGINCRPTAMSPEDLVKDKATLTVDKSSNTVYMEFRSLTLEDSAIYFCARRECPINQGDYWGQGTIFTVSS
VL: EIVLTQSPALMAASPGEKVTITCGCARNTIWNNVGWYQQKSETSPKPWIYWASLFGKGVPVRFSGSGSGTSYSLTISSMEAEDAATYYCQDIQENWTPFGAGTKLELK
B1 was tested, and the Kd was 21.5 nM, the koff was 0.000445 s⁻¹ and the kon was 20700 M⁻¹ s⁻¹.

From patent CN113234143A
